# Data as given in patent US20250206828A1, “ANTI-ADENOSINE RECEPTOR (A2aR) ANTIBODIES AND THE USE THEREOF” (Adept Therapeutics Inc., priority 2022, published 2025).
# Substitutions are numbered along the chain they refer to. In names and notes the source's numbering stands.
# B1: Hu1B5-H1/Hu1B5-L4 (antibody, human IgG1, V domains shown)
# VH: QVQLVQSGAEVKKPGASVKVSCKASGFTFTRFWMNWVRQAPGQGLEWMGRIDPYDSETQYNHKFWDRVTMTRDTSTSTVYMELSSLRSEDTAVYYCGRSLYGKGDYWGQGTTVTVSS
# VL: DVVMTQSPLSLPVTPGEPASISCRSSQSIVHSNGNTYLEWYLQKPGQSPQLLIYKVSNRFSGVPDRFSGSGSGTDFTLKISRVEAEDVGVYYCFQGSHVPLTFGGGTKVEIK
# notes: Human IgG1 FES (L234F, L235E, P331S) and human Ig kappa constant domains
# B2: Hu1B5-H1/Hu1B5-L1 (antibody, human IgG1, V domains shown)
# VH: B1 VH
# VL: B1 VL with P15L, E17Q, Y41F, L42Q, K44R, Q50R, L51R
# notes: as for B1
# B3: Hu1B5-H2.1/Hu1B5-L5 (antibody, human IgG1, V domains shown)
# VH: B1 VH with Q1E, A24T, M48I, R72V
# VL: DIVMTQSPDSLAVSLGERATINCRSSQSIVHSNGNTYLEWYQQKPGQPPKLLIYKVSNRFSGVPDRFSGSGSGTDFTLTISSLQAEDVAVYYCFQGSHVPLTFGGGTKVEIK
# notes: as for B1
# B4: Hu1B5-H4/Hu1B5-L5 (antibody, human IgG1, V domains shown)
# VH: B1 VH with Q1E, A24T, M48I, V68A, M70L, R72V, T74K, T76S
# VL: B3 VL
# notes: as for B1
# B5: Hu1B5-H2/Hu1B5-L4 (antibody, human IgG1, V domains shown)
# VH: B1 VH with Q1E, A24T, R72V
# VL: B1 VL
# notes: as for B1
# B6: Hu1B5-H3/Hu1B5-L5 (antibody, human IgG1, V domains shown)
# VH: B1 VH with Q1E, A24T, M48I, V68A, M70L, R72V, T76S
# VL: B3 VL
# notes: as for B1
# B7: Hu1B5-H2/Hu1B5-L5 (antibody, human IgG1, V domains shown)
# VH: B1 VH with Q1E, A24T, R72V
# VL: B3 VL
# notes: as for B1
# B8: Hu1B5-H3/Hu1B5-L4 (antibody, human IgG1, V domains shown)
# VH: B1 VH with Q1E, A24T, M48I, V68A, M70L, R72V, T76S
# VL: B1 VL
# notes: as for B1
# B9: Hu1B5-H4/Hu1B5-L4 (antibody, human IgG1, V domains shown)
# VH: B1 VH with Q1E, A24T, M48I, V68A, M70L, R72V, T74K, T76S
# VL: B1 VL
# notes: as for B1
# B10: Hu1B5-H1/Hu1B5-L5 (antibody, human IgG1, V domains shown)
# VH: B1 VH
# VL: B3 VL
# notes: as for B1
# B11: Hu1B5-H5/Hu1B5-L4 (antibody, human IgG1, V domains shown)
# VH: B1 VH with Q1E, A24T, M48I, N61A, V68A, M70L, R72V, T74K, T76S
# VL: B1 VL
# notes: as for B1
# B12: Hu1B5-H2.1/Hu1B5-L4 (antibody, human IgG1, V domains shown)
# VH: B1 VH with Q1E, A24T, M48I, R72V
# VL: B1 VL
# notes: as for B1
# B13: Hu3F6-H1/Hu3F6-L1 (antibody, human IgG1, V domains shown)
# VH: B1 VH with T28A, R31S, F32Y, Y54S, T58A, Q59H, N61H, D66G, G97L, Q109H
# VL: B1 VL with P15L, E17Q, I29L, S32R, Y41F, L42Q, K44R, Q50R, L51R, F94Y
# notes: as for B1
# B14: Hu3F6-H1/Hu3F6-L4 (antibody, human IgG1, V domains shown)
# VH: B1 VH with T28A, R31S, F32Y, Y54S, T58A, Q59H, N61H, D66G, G97L, Q109H
# VL: B1 VL with V2I, S7T, P12S, E17Q, I29L, S32R, F94Y
# notes: as for B1
# B15: Hu3F6-H1/Hu3F6-L3 (antibody, human IgG1, V domains shown)
# VH: B1 VH with T28A, R31S, F32Y, Y54S, T58A, Q59H, N61H, D66G, G97L, Q109H
# VL: B1 VL with P15L, E17Q, I29L, S32R, L42Q, K44R, Q50R, F94Y
# notes: as for B1
# B16: Hu3F6-H4/Hu3F6-L4 (antibody, human IgG1, V domains shown)
# VH: EVQLVQSGAEVKKPGASVKVSCKTSGFAFTSYWMNWVRQAPGQGLEWIGRIDPSDSEAHYHHKFWGRATLTVDKSSSTVYMELSSLRSEDTAVYYCLRSLYGKGDYWGHGTTVTVSS
# VL: B1 VL with V2I, S7T, P12S, E17Q, I29L, S32R, F94Y
# notes: as for B1
# B17: Hu3F6-H4/Hu3F6-L6 (antibody, human IgG1, V domains shown)
# VH: B16 VH
# VL: B1 VL with V2I, S7T, L9P, T14N, I29L, S32R, T74S, R82W, F94Y
# notes: as for B1
# B18: Hu3F6-H4/Hu3F6-L3 (antibody, human IgG1, V domains shown)
# VH: B16 VH
# VL: B1 VL with P15L, E17Q, I29L, S32R, L42Q, K44R, Q50R, F94Y
# notes: as for B1
# B19: Hu3F6-H2/Hu3F6-L6 (antibody, human IgG1, V domains shown)
# VH: B16 VH with I48M, A68V, L70M, K74T, S76T
# VL: B1 VL with V2I, S7T, L9P, T14N, I29L, S32R, T74S, R82W, F94Y
# notes: as for B1
# B20: Hu3F6-H2/Hu3F6-L7 (antibody, human IgG1, V domains shown)
# VH: B16 VH with I48M, A68V, L70M, K74T, S76T
# VL: B1 VL with S7T, L9P, T14N, I29L, S32R, T74S, R82W, F94Y
# notes: as for B1
# B21: Hu3F6-H5/Hu3F6-L7 (antibody, human IgG1, V domains shown)
# VH: B16 VH with H61A
# VL: B1 VL with S7T, L9P, T14N, I29L, S32R, T74S, R82W, F94Y
# notes: as for B1
# B22: Hu3F6-H1/Hu3F6-L5 (antibody, human IgG1, V domains shown)
# VH: B16 VH with E1Q, T24A, I48M, A68V, L70M, V72R, K74T, S76T
# VL: B1 VL with S7T, P12S, E17Q, I29L, S32R, F94Y
# notes: as for B1
# B23: Hu3F6-H1/Hu3F6-L2 (antibody, human IgG1, V domains shown)
# VH: B16 VH with E1Q, T24A, I48M, A68V, L70M, V72R, K74T, S76T
# VL: B1 VL with P15L, E17Q, I29L, S32R, L42Q, K44R, Q50R, L51R, F94Y
# notes: as for B1
# B24: Hu3F6-H6/Hu3F6-L8 (antibody, human IgG1, V domains shown)
# VH: EVQLVQSGAEVKKPGESLRISCKASGFAFTSYWMNWVRQMPGKGLEWIGRIDPSDSEAHYHHKFWGHATLSVDKSSSTVYLQWSSLKASDTAMYYCLRSLYGKGDYWGHGTTVTVSS
# VL: B1 VL with I29L, S32R, F94Y
# notes: as for B1
# B25: Hu3F6-H5/Hu3F6-L6 (antibody, human IgG1, V domains shown)
# VH: B16 VH with H61A
# VL: B1 VL with V2I, S7T, L9P, T14N, I29L, S32R, T74S, R82W, F94Y
# notes: as for B1
# B26: Hu3F6-H4/Hu3F6-L7 (antibody, human IgG1, V domains shown)
# VH: B16 VH
# VL: B1 VL with S7T, L9P, T14N, I29L, S32R, T74S, R82W, F94Y
# notes: as for B1
# B27: Hu3F6-H3/Hu3F6-L6 (antibody, human IgG1, V domains shown)
# VH: B16 VH with K74T
# VL: B1 VL with V2I, S7T, L9P, T14N, I29L, S32R, T74S, R82W, F94Y
# notes: as for B1
# B28: Hu3F6-H2/Hu3F6-L1 (antibody, human IgG1, V domains shown)
# VH: B16 VH with I48M, A68V, L70M, K74T, S76T
# VL: B1 VL with P15L, E17Q, I29L, S32R, Y41F, L42Q, K44R, Q50R, L51R, F94Y
# notes: as for B1
# B29: Hu3F6-H4/Hu3F6-L2 (antibody, human IgG1, V domains shown)
# VH: B16 VH
# VL: B1 VL with P15L, E17Q, I29L, S32R, L42Q, K44R, Q50R, L51R, F94Y
# notes: as for B1
# B30: Hu3F6-H1/Hu3F6-L6 (antibody, human IgG1, V domains shown)
# VH: B16 VH with E1Q, T24A, I48M, A68V, L70M, V72R, K74T, S76T
# VL: B1 VL with V2I, S7T, L9P, T14N, I29L, S32R, T74S, R82W, F94Y
# notes: as for B1
# B31: Hu3F6-H4/Hu3F6-L5 (antibody, human IgG1, V domains shown)
# VH: B16 VH
# VL: B1 VL with S7T, P12S, E17Q, I29L, S32R, F94Y
# notes: as for B1
# B32: Hu3F6-H1/Hu3F6-L7 (antibody, human IgG1, V domains shown)
# VH: B16 VH with E1Q, T24A, I48M, A68V, L70M, V72R, K74T, S76T
# VL: B1 VL with S7T, L9P, T14N, I29L, S32R, T74S, R82W, F94Y
# notes: as for B1
# B33: Hu3F6-H3/Hu3F6-L7 (antibody, human IgG1, V domains shown)
# VH: B16 VH with K74T
# VL: B1 VL with S7T, L9P, T14N, I29L, S32R, T74S, R82W, F94Y
# notes: as for B1
# B34: Hu3F6-H6/Hu3F6-L5 (antibody, human IgG1, V domains shown)
# VH: B24 VH
# VL: B1 VL with S7T, P12S, E17Q, I29L, S32R, F94Y
# notes: as for B1
# B35: Hu3F6-H6/Hu3F6-L3 (antibody, human IgG1, V domains shown)
# VH: B24 VH
# VL: B1 VL with P15L, E17Q, I29L, S32R, L42Q, K44R, Q50R, F94Y
# notes: as for B1
# B36: Hu3F6-H6/Hu3F6-L6 (antibody, human IgG1, V domains shown)
# VH: B24 VH
# VL: B1 VL with V2I, S7T, L9P, T14N, I29L, S32R, T74S, R82W, F94Y
# notes: as for B1
# B37: Hu3F6-H6/Hu3F6-L1 (antibody, human IgG1, V domains shown)
# VH: B24 VH
# VL: B1 VL with P15L, E17Q, I29L, S32R, Y41F, L42Q, K44R, Q50R, L51R, F94Y
# notes: as for B1
# B38: Hu3F6-H6/Hu3F6-L7 (antibody, human IgG1, V domains shown)
# VH: B24 VH
# VL: B1 VL with S7T, L9P, T14N, I29L, S32R, T74S, R82W, F94Y
# notes: as for B1
# B39: Hu3F6-H6/Hu3F6-L2 (antibody, human IgG1, V domains shown)
# VH: B24 VH
# VL: B1 VL with P15L, E17Q, I29L, S32R, L42Q, K44R, Q50R, L51R, F94Y
# notes: as for B1
# B40: Hu3F6-H4/Hu3F6-L8 (antibody, human IgG1, V domains shown)
# VH: B16 VH
# VL: B1 VL with I29L, S32R, F94Y
# notes: as for B1
# B41: Hu3F6-H1/Hu3F6-L8 (antibody, human IgG1, V domains shown)
# VH: B16 VH with E1Q, T24A, I48M, A68V, L70M, V72R, K74T, S76T
# VL: B1 VL with I29L, S32R, F94Y
# notes: as for B1
# B42: Hu3F6-H6/Hu3F6-L4 (antibody, human IgG1, V domains shown)
# VH: B24 VH
# VL: B1 VL with V2I, S7T, P12S, E17Q, I29L, S32R, F94Y
# notes: as for B1
# Molecular target: T1, human adenosine A2A receptor (A2aR) (human, UniProt P29274 1-412)
# T1 construct: Assays used HEK293 cells stably overexpressing human A2aR (BPS Bioscience 79381), human A2aR-expressing CHO cells, or endogenous A2aR on human PBMC; also called human A2aR; hA2aR
# T1 sequence (P29274 whole entry): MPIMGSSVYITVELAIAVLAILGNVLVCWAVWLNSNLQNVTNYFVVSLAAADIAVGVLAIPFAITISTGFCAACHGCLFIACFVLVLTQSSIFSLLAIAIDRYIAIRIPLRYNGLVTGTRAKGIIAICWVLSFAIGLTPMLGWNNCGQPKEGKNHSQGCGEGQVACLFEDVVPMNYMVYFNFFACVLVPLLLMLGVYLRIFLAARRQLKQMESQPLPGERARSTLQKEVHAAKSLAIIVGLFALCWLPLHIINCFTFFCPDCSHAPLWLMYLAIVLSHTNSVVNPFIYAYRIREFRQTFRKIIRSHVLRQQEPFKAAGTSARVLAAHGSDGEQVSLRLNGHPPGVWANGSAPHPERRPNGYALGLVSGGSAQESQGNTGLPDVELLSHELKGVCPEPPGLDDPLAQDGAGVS
# Experiment: flow cytometry, HEK293-hA2aR cells, supernatant 1 ug/ml
row,MFI,Binder
1,1570 MFI,B1
2,34 MFI,B2
3,960 MFI,B3
4,872 MFI,B4
5,1630 MFI,B5
6,686 MFI,B6
7,728 MFI,B7
8,1550 MFI,B8
9,1780 MFI,B9
10,481 MFI,B10
11,1710 MFI,B11
12,1720 MFI,B12

# Molecular target: T1, human adenosine A2A receptor (A2aR)
# Experiment: as above
# Remark: another data set of the same source
row,MFI,Binder
1,15 MFI,B13
2,1320 MFI,B14
3,1600 MFI,B15
4,1450 MFI,B16
5,1960 MFI,B17
6,1960 MFI,B18
7,1580 MFI,B19
8,1180 MFI,B20
9,1890 MFI,B21
10,1500 MFI,B22
11,14 MFI,B23
12,2000 MFI,B24
13,1840 MFI,B25
14,1880 MFI,B26
15,1660 MFI,B27
16,13 MFI,B28
17,255 MFI,B29
18,313 MFI,B30
19,1990 MFI,B31
20,290 MFI,B32
21,1510 MFI,B33
22,1980 MFI,B34
23,2090 MFI,B35
24,979 MFI,B36
25,27 MFI,B37
26,1170 MFI,B38
27,17 MFI,B39
28,1710 MFI,B40
29,1420 MFI,B41
30,2000 MFI,B42
